Experimental findings from patent US20250215073A1 (TOKUSHIMA UNIVERSITY, published 2025) are described below.

One test deals with T1, human c-KIT (human, UniProt P10721 26-976).
T1 construct: whole, on cells; Endogenous c-KIT of the GIST cell line GIST-T1 and the small cell lung cancer line SY; also called c-KIT on GIST-T1 cells; c-KIT on SCLC cell line SY
The experiment in a line: flow cytometry on fixed GIST-T1 cells, 10 µg antibody. As to the method: GIST-T1 cells were collected with trypsin (on ice), and 1×10⁶ cells were dispensed into 1.5 mL tubes. The cells were washed three times with 1 mL of PBS-BSA-Azide. To each tube, 1 mL of 4% paraformaldehyde cooled to 4° C. was added and mixed by gentle pipetting on ice. The tubes were returned to room temperature and left to stand for 15 minutes (the subsequent process was carried out at room temperature). The cells were washed three times with 1 mL of PBS-BSA-Azide.
To GIST-T1 cell pellets, 100 μL of each antibody solution prepared with PBS-BSA-Azide was added and mixed. The mixtures were prepared to contain 10 μg of the IR700-labeled mouse anti-c-KIT (12A8) antibody, 10 μg of the IR700-labeled humanized anti-c-KIT (12A8) IgG1 antibody, and 10 μg of the IR700-labeled humanized anti-c-KIT (12A8) Fab antibody, respectively. Each mixture was covered with aluminum foil in the dark and allowed to react at room temperature (from 20° C. to 25° C.) for 60 minutes (the subsequent process was carried out in the dark as much as possible). Washing was performed three times by adding 1 mL of PBS-BSA-Azide. After adding 500 μL of PBS-BSA-Azide and mixing, each mixture was passed through a filter (42-μm nylon mesh, AS ONE Corporation). Measurement was performed using FACS (CytoFLEX (Beckman Coulter)) with excitation at 638 nm and 712/25BP.

Test [1] addresses T2, FLT4-Fc (fusion product of the extracellular region of the human FLT4 protein and mouse antibody Fc) (human; mouse, UniProt P35916 25-775).
T2 construct: extracellular domain; Negative control antigen in the EIA
T2 sequence (looked up): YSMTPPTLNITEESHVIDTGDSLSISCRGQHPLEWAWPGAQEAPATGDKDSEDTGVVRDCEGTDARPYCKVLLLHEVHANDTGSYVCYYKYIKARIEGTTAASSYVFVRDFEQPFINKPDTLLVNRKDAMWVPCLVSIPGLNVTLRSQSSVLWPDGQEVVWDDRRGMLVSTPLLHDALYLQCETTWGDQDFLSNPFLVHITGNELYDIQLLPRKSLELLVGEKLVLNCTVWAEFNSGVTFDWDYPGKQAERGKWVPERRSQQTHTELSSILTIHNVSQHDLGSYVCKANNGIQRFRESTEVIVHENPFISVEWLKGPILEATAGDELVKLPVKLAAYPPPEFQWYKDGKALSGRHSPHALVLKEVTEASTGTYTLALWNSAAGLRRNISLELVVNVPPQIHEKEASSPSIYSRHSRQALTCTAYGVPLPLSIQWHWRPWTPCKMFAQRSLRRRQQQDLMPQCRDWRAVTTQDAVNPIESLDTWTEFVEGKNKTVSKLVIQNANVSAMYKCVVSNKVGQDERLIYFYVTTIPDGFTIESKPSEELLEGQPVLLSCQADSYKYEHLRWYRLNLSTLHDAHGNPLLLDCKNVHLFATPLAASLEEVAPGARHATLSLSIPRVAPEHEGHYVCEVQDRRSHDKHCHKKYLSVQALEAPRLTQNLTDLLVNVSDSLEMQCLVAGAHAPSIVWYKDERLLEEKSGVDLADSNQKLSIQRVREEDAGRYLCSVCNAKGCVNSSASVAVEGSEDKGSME
In words: EIA, antigen solid-phased in 96-well plate, HRP anti-human Kappa detection. The text has this:
Since the antigen recognition site of the anti-c-KIT (12A8) antibody is the extracellular region of the human c-KIT protein, a fusion protein (c-KIT-Fc) of the c-KIT extracellular region and the Fc region of the mouse antibody was used as the antigen for EIA. A fusion product of the extracellular region of the human FLT4 protein and mouse antibody Fc (FLT4-Fc) was used as a negative control.
Each above was solid-phased in a 96-well plate, blocked with a BSA solution, washed, sufficiently dried, and then stored in a refrigerator until use. The humanized anti-c-KIT (12A8) IgG1 antibody-producing clone culture supernatant was diluted 2-fold to 64-fold and added to an antigen solid-phase plate and a negative control plate so as to perform a primary reaction. The same was performed for the humanized anti-c-KIT (12A8) Fab antibody. The primary reaction was carried out for one hour at room temperature, and then each well was washed with phosphate-buffered saline (PBS). The HRP-labeled anti-human Kappa chain antibody was added as a secondary antibody and reacted for 30 minutes at room temperature. Thereafter, each well was washed with PBS, and the substrate OPD (Sigma-Aldrich) was added to develop a color. IN sulfuric acid was added to stop the reaction, and the absorbance at 490 nm was measured.

T1 sequence (P10721 26-976): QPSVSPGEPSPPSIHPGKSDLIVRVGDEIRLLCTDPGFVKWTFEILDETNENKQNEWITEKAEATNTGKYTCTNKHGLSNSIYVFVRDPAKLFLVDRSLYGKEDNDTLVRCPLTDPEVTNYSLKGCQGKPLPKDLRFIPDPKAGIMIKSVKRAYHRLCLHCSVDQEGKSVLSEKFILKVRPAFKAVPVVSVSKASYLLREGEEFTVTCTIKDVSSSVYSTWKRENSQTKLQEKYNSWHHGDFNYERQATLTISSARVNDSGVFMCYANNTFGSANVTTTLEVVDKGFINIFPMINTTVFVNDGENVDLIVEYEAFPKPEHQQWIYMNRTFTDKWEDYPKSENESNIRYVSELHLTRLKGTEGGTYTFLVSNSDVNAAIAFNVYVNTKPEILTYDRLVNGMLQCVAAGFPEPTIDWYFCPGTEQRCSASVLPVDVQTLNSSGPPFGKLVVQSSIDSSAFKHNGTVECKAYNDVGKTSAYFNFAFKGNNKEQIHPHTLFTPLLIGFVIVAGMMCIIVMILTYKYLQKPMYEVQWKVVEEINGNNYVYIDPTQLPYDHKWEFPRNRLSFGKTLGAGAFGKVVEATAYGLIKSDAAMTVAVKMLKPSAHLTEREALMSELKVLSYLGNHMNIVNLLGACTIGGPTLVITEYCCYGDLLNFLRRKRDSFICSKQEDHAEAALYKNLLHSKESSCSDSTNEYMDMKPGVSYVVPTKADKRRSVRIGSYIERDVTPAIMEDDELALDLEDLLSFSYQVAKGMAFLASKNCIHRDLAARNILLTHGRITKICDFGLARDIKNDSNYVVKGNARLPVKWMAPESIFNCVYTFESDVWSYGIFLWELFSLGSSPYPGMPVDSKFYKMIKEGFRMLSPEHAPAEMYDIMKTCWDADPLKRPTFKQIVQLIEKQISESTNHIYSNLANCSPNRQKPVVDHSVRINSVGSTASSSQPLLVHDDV

B1: IR700-labeled humanized anti-c-KIT (12A8) IgG1 antibody (antibody, V domains shown)
VH: QVQLVQSGAEVKKPGASVKVSCKASGYSFSNYYMHWVRQAPGQRLEWMGYISCFNGATTYNQKFRGRVTITRDTSASTAYMELSSLRSEDTAVYYCARRTAGAMDYWGQGTLVTVSS
VL: DIVMTQTPLSLSVTPGQPASISCRSSQSLANSYGNTYLSWYLQKPGQSPQLLIYGISNRFSGVPDRFSGSGSGTDFTLKISRVEAEDVGVYYCLQGTHQPYTFGGGTKVEIKR
modifications: IR700 (IRDye700DX) conjugated, residues not stated
notes: The antibody was purified on protein A before labeling; also called Humanized Whole IgG
For B1, in the test with human c-KIT, the binding result is listed as “binds”.

B2: humanized anti-c-KIT (12A8) Fab antibody (Fab, V domains shown)
VH: B1 VH
VL: B1 VL
notes: Recombinant Fab, tested in the EIA as CHO-K1 culture supernatant; also called Fab fragment of the humanized anti-c-KIT (12A8) antibody
In the case of B2, the binding result in test [1] is “no binding”.

B3: humanized anti-c-KIT (12A8) IgG1 antibody (antibody, V domains shown)
VH: B1 VH
VL: B1 VL
notes: Human IgG1 / kappa, tested in the EIA as CHO-K1 culture supernatant; also called humanized c-KIT (12A8) IgG1; humanized anti-c-KIT (12A8) antibody (whole IgG)
On to B3, for which the binding result in test [1] is given as “no binding”.

B4: IR700-labeled humanized anti-c-KIT (12A8) Fab antibody (Fab, V domains shown)
VH: B1 VH
VL: B1 VL
modifications: IR700 (IRDye700DX) conjugated, residues not stated
notes: The Fab was purified on Kan Cap G before labeling; also called Humanized Fab
B4: the binding result with human c-KIT is recorded as “binds”.

B5: IR700-labeled mouse anti-c-KIT (12A8) antibody (whole IgG) (antibody, V domains shown)
VH: EVQLQQSGPELVKTGTSVKISCKASGYSFSNYYMHWVKQSHGKSLEWIGYISCFNGATTYNQKFRGKATFTVDTSSSTTYMQFNSLTSEDSAVYFCARRTAGAMDYWGQGTSVTVSS
VL: EVVVTQTPLSLPVSFGDQVSISCRSSQSLANSYGNTYLSWYLHKPGQSPQLLIYGISNRFSGVPDRFSGSGSGTEFTLEISTIKPEDLGMYYCLQGTHQPYTFGGGTKLEIKR
modifications: IR700 (IRDye700DX) conjugated, residues not stated
notes: Mouse IgG1 12A8 conjugated with IRDye700DX; also called IR700-12A8 (whole IgG); IR700-12A8 Whole IgG
Regarding B5, the binding result in the test with human c-KIT is on record as “binds”.
